Results on 18 sequences are retold here after the DeepSol protein solubility set.

This data set in a line: soluble on expression in E. coli; label from the status in PepcDB or PDB records.
With “MSQSLFSLAFGVGTQNRQEAWLEVFYALPLLKPSSEIVAAVAPILGYAAGNQALTFTSQQAYQLADALKGIDAAQSALLSRLAESQKPLVATLLAEDAAPSSTAEAYLKLHLLSHRLVKPHAVNLSGIFPLLPNVAWTNIGAVDLAELAELQLEARLKGKLLEVFSVDKFPKMTDYVVPAGVRIADTARVRLGAYIGEGTTVMHEGFVNFNAGTEGPGMIEGRVSAGVFVGKGSDLGGGCSTMGTLSGGGNIVISVGEGCLIGANAGIGIPLGDRNIVEAGLYITAGTKVALLDEQNALVKVVKARDLAGQPDLLFRRNSQNGAVECK”, the “soluble on expression in E. coli” value is listed as “not soluble”.

As for “MSRAVRPYLVLATQRSGSTLLVESLRATGCAGEPQEFFQYLPSTGMAPQPREWFAGVDDDTILQLLDPLDPGTPDTATPVAWREHVRTSGRTPNGVWGGKLMWNQTALLQQRAAQLPDRSGDGLRAAIRDVIGNEPVFVHVHRPDVVSQAVSFWRAVQTQVWRGHPDPKRDSQAVYHAGAIAHIIRNLRDQENGWRAWFAEEGIDPIDIAYPVLWRNLTAIVASVLDAIGQDPKLAPAPMLERQANQRSDEWVDRYRAEAPRLGLPT”, the “soluble on expression in E. coli” value is “soluble”.

As to “MSRDSGNDSEVAVTHGEVQEITEENPEIGSMHITQETDISDAPETNTDSSRQRTESTTSVSSESWQNNDEMMSNLRRAQRLLDDGATPLQIIQQIFPDFNASRIATMSENAHFAILSDLLERAPVRQKLTNYNSLADAVELFKTKKHILVLTGAGVSVSCGIPDFRSKDGIYARLRSEFPDLPDPTAMFDIRYFRENPAPFYNFAREIFPGQFVPSVSHRFIKELETSGRLLRNYTQNIDTLEHQTGIKRVVECHGSFSKCTCTRCGQKYDGNEIREEVLAMRVAHCKRCEGVIKPNIVFFGEDLGREFHQHVTEDKHKVDLIVVIGSSLKVRPVALIPHCVDKNVPQILINRESLPHYNADIELLGNCDDIIRDICFSLGGSFTELITSYDSIMEQQGKTKSQKPSQNKRQLISQEDFLNICMKEKRNDDSSDEPTLKKPRMSVADDSMDSEKNNFQEIQKHKSEDDDDTRNSDDILKKIKHPRLLSITEMLHDNKCVAISAHQTVFPGAECSFDLETLKLVRDVHHETHCESSCGSSCSSNADSEANQLSRAQSLDDFVLSDEDRKNTIHLDLQRADSCDGDFQYELSETIDPETFSHLCEEMRI”, the “soluble on expression in E. coli” value is “not soluble”.

Turning to “MSRIHTLTMPKWGLSMTEGRVDAWLKEEGAHIEKGDEVLDVETDKISSSVEAPFSGVLRRKVAREDETLAVGALLGVVVEGEASDEEIDALVQRFQAEFVPADEDAGDSGPAPRKVELDGRLLRYFDRGEGDPALLLIHGFGGDLNNWLFNHEALAAERRVIALDLPGHGESGKALVRGDLDELSGSVLALLDHLDLEQVHLAGHSMGGAVALNCARLAPQRVLSLSLIGSAGLGEEINGDYLRGFVEAANRNALKPQLVQLFSDPALVTRQMLEDMLRYKRLEGVDAALRQLLDNLFADGRQRNDLRAVANEGRQPVLAIWGSDDAIIPARHAEGLPAQVEIIPGQAHMVQMEAAEQVNRLLLDFLRQH”, the “soluble on expression in E. coli” value is “not soluble”.

On to “MSRIIMLIPTGTSVGLTSVSLGVIRAMERKGVRLSVFKPIAQPRTGGDAPDQTTTIVRANSSTTTAAEPLKMSYVEGLLSSNQKDVLMEEIVANYHANTKDAEVVLVEGLVPTRKHQFAQSLNYEIAKTLNAEIVFVMSQGTDTPEQLKERIELTRNSFGGAKNTNITGVIVNKLNAPVDEQGRTRPDLSEIFDDSSKAKVNNVDPAKLQESSPLPVLGAVPWSFDLIATRAIDMARHLNATIINEGDINTRRVKSVTFCARSIPHMLEHFRAGSLLVTSADRPDVLVAACLAAMNGVEIGALLLTGGYEMDARISKLCERAFATGLPVFMVNTNTWQTSLSLQSFNLEVPVDDHERIEKVQEYVANYINADWIESLTATSERSRRLSPPAFRYQLTELARKAGKRIVLPEGDEPRTVKAAAICAERGIATCVLLGNPAEINRVAASQGVELGAGIEIVDPEVVRESYVGRLVELRKNKGMTETVAREQLEDNVVLGTLMLEQDEVDGLVSGAVHTTANTIRPPLQLIKTAPGSSLVSSVFFMLLPEQVYVYGDCAINPDPTAEQLAEIAIQSADSAAAFGIEPRVAMLSYSTGTSGAGSDVEKVREATRLAQEKRPDLMIDGPLQYDAAVMADVAKSKAPNSPVAGRATVFIFPDLNTGNTTYKAVQRSADLISIGPMLQGMRKPVNDLSRGALVDDIVYTIALTAIQSAQQQ”, for which the “soluble on expression in E. coli” value was “soluble”.

With “MSRKKMGLLVMAMGTPYKEEDIERYYTHIRRGRKPEPEMLQDLKDRYEAIGGISPLAQITEQQAHNLEQHLNEIQDEITFKAYIGLKHIEPFIEDAVAEMHKDGITEAVSIVLAPHFSTFSVQSYNKRAKEEAEKLGGLTITSVESWYDEPKFVTYWVDRVKETYASMPEDERENAMLIVSAHSLPEKIKEFGDPYPDQLHESAKLIAEGAGVSEYAVGWQSEGNTPDPWLGPDVQDLTRDLFEQKGYQAFVYVPVGFVADHLEVLYDNDYECKVVTDDIGASYYRPEMPNAKPEFIDALATVVLKKLGR”, the “soluble on expression in E. coli” value was “soluble”.

“MSRLATLTWTSYRRGYTEIVTSAGLEVVFEPGDEWNSHDREYQQARLEVEGRGESGDGTVRTRTQALLRWQFKIKDGTVKRLPEADFTREVLVAVRLAIKDYRSQSSELRQKYFGPGFAMGG”: the “soluble on expression in E. coli” value is reported as “not soluble”.

With “MSRLRSTPIPGTRDSYTQVDFNLGFHVRHYDVSLDYVVAPNRLKAVVTLSMDTYQPLRSLTLDLSDALTVKSVTAQGTSAVAVRVQKFRHRNHKLRISFTEEIPVDQEFKITVTYSGNPRPIRSTWGLIGWEELSNGSLVASQPNGARSWLPCDDTPDEK”, the “soluble on expression in E. coli” value is on record as “not soluble”.

Regarding “MSRPAASLGLMRMIEAVPDRLDGSPRQLRRFWSDEFKETAVEQACQPGVNMSAVARQIGILPSQLYRWRRELLASDKPGEAPAAVDPQSVAPDANPVVEIVIDGIVVRADRHIEEAHLQRVIRAVRSALEHHHHHH”, the “soluble on expression in E. coli” value was “soluble”.

As to “MSRPTLQVDLLVESFNYKAWSDRRTLDAIARIDAEAFPASLAFALQQLNHMAIVEELFRARLLGEPAPHQQTNSEVVPGYDVLRRRLEDSAAWFAGYVAELPLERRGEWLRFRFADGRDGGMTRQEILFHIVNHGTYHRGAIGHALDLAGAPRPADTYTLYIHSAQPERRE”, the “soluble on expression in E. coli” value was “not soluble”.

In the case of “MSRRRIRKFERPEEALLHLLDAAGIYRVGSRVWLHKPRVRELGFQYLAVETLVREYALAAEREYRGSVVYSKVYGGREYKILLGRGEEVAEASLADPSTVQRLLFSWRHLEELLPSPPLPAFVVDLSLKFMHTEEELSKLRLQIAVALSEVRKYLWDPHLVLTNMDPQTSGWISEVLGDNKVTISQSKPSEILWSMDADRVVILRPDAPQPLSGSEVLAADAFLIGGIVDRIPRPGVSRILDNLVPWGVPRRIELRGSVAGVPERINRIVEILLKARYKYPGNLEKAIITSMTKKDVLTRVYSEIIKRGRRVGSELVVEWSLYEDLSSWLPLTPEDFMLAAKRARARIEGAPRRDNALEHHHHHH”, the “soluble on expression in E. coli” value is “not soluble”.

For the sequence “MSRSGEFCPRCGDEIPEGTDERPELAGAGGQRNSEHVLCDACYFEEFDLVDAPDTIQVRVCSRCGAVHKGNRWVDIGAEDYTDIAVEQVSEALGIHVDAQSVAWQVAPEQLDKNNIRMHAEFSGVIRGTPVTEEVTVPVRISRQTCKRCGKIAGGSFASIVQVRADGRDPTDDERERAEEIAQEYVAAREETGDRNAFITETKSVDDGLDMKISTNQMGLGIAKRITAQLGGSYSDSRRLISEDEDGQELYRMTYAVRLPRYRQGEVIDPEDGDGPVLVRSVQGNLKGVRLATGEDYEASFEAGETPDARRLGFREDGQQTTLVAIEDERAVQVLDPETFESKTVPRPDYLDIDADEVPVLKSHAGLHILPAADADTDELEHHHHHH”, the “soluble on expression in E. coli” value was “soluble”.

As to “MSRSKKSRKPGTNSNDQLVVVRTRSESELESRLRKKLKKRKGLKSGSRHSEGSESQVRQAAQKRDPRLGSKKPIPLIVAEPKKLNKQERKLAAEQELAMLEKDAQLNVLLDRLDNGEKLGIGLQKYVDEKLDRIEVLMEQLGLLDDEPEPAPAPQSKPTKKRKTEDDLLSEFEQLDVDKYQD”, the “soluble on expression in E. coli” value was “not soluble”.

For “MSSDGEQDEENPILARHRREKKELRGKILAKKKAAKCGNKQMQKEAGAECEKMEKEMDERHKKELEEAKKPEESEAVPAENPEASTLSPPSPNPEGSDNDGEGPSSSAFYKTVKISNKAAKKQDKKKKTADKMKAAEAADKEAGKNQLSDRQMEKAAVKEMLAEDHMKMIDIPADGDCMYNAISHQLQEEGIEISVRKLRKRCGTYMREHSEDFRPFIEDMANMDSDSSWATYLGGVENVAEIGGVWGGELELKACSMIFEKTIVVYKQYGGRHTIGEEYSSPKDRALRVVFLRHAYSLGEHYNSTCPY”, the “soluble on expression in E. coli” value is “soluble”.

As for “MSSFVPNKEQTRTVLIFCFHLKKTAAESHRMLVEAFGEQVPTVKTCERWFQRFKSGDFDVDDKEHGKPPKRYEDAELQALLDEDDAQTQKQLAEQLEVSQQAVSNRLREMGKIQKVGRWVPHELNERQMERRKNTCEILLSRYKRKSFLHRIVTGDEKWIFFVNPKRKKSYVDPGQPATSTARPNRFGKKTMLCVWWDQSGVIYYELLKPGETVNAARYQQQLINLNRALQRKRPEYQKRQHRVIFLHDNAPSHTARAVRDTLETLNWEVLPHAAYSPDLAPSDYHLFASMGHALAEQRFDSYESVKKWLDEWFAAKDDEFYWRGIHKLPERWEKCVASDGKYFE”, the “soluble on expression in E. coli” value was “soluble”.

In the case of “MSSGKDFFVHSHALCESENIGKDSRVWAFAHILPGARLGSECNVCDNVFIENDVIIGDRVTLKCGVQVWDGITIEDDVFIGPNATFTNDLFPRSKVYPQTFARTIIRKGASLGANCTILPGITIGINAMVGAGAVVTRSVPPNAIVVGNPAKIIGYVDAKPVNANSETRAEQKAPGVTATSVKNVTLHTMNEVADIRGSLSAGEFERSVPFKTERYFLVYDVPTAETRGEHAHRICHQFLVAVKGSVHVVADDGVNREEFILDKPNQGIHLPPMTWGIQYRYSQDAVLLVFASHYYDAGDYIRNYEEFKSLIANAELEHHHHHH”, the “soluble on expression in E. coli” value is on record as “soluble”.

“MSSISLIQPDRDLFSWPQYWAACFGPAPFLPMSREEMDQLGWDSCDIILVTGDAYVDHPSFGMAICGRMLEAQGFRVGIIAQPDWSSKDDFMRLGKPNLFFGVTAGNMDSMINRYTADRRLRHDDAYTPDNVAGKRPDRATLVYTQRCKEAWKDVPVILGGIEASLRRTAHYDYWSDTVRRSVLVDSKADMLMFGNGERPLVEVAHRLAMGEPISEIRDVRNTAIIVKEALPGWSGVDSTRLDTPGKIDPIPHPYGEDLPCADNKPVAPKKQEAKAVTVQPPRPKPWEKTYVLLPSFEKVKGDKVLYAHASRILHHETNPAVPAH”: the “soluble on expression in E. coli” value is on record as “not soluble”.

Take “MSSKDKKPSKPSSSRGGIRTLSDLNRRSGPDSDSDSDGPQEYYTGGEKSGMLVQDPSKKDDVDEIFNQARQLGAVEGPLEPPPSSRSFTGTGRLLSGENVPTGNQQPEPVVHNIVFWSNGFTIDDGPLRKLDDPENASFLEVNDFHSIRKSECPKELEPADRRAPVHVNLMRKEEKCPERQKRRVSFQGVGRTLGGSNEGSGSSSPVAPDSAPIPIQTEPAPSQSLVIDETVPTTSIQLRLADGTRLVAKFNHHHTVNDIRGFIDSSRPGASLNYQLQTMGFPPKPLTDLTQTIEEAGLANSVVLQKF”: the “soluble on expression in E. coli” value is given as “soluble”.
